Test results taken from US20200361992A1 (PROTAGONIST THERAPEUTICS, published 2020).
Starred links: 1 amine or outer side, 2 acyl side, 3 side chain; linkers in the order of their positions; H or OH if unused. Positions of bridges follow the written chain, without caps; N, C: chain ends. Non-standard residues stand in square brackets, D forms with d. Groups on a side chain read outwards from the residue. *: point of attachment. PEG12 = NCCOCCOCCOCCOCCOCCOCCOCCOCCOCCOCCOCCOCCC(=O)O; Dip = N[C@H](C(=O)O)C(c1ccccc1)c1ccccc1; NPC = nipecotic acid (L-nipecotic acid); γGlu = O=C(O)[C@H](CCC(=O)[*:2])N[*:1]; Palmitoyl = CCCCCCCCCCCCCCCC(=O)*; NMeF = CN[C@@H](Cc1ccccc1)C(=O)O; αMeF = C[C@](N)(Cc1ccccc1)C(=O)O; β3hF = N[C@H](CC(=O)O)Cc1ccccc1; Isovaleryl = CC(C)CC(=O)*

T1: human ferroportin (SLC40A1) fused in frame with the GFP protein, stably expressed in HEK293 cells (human, UniProt Q9NP59 1-571)
T1 sequence (looked up): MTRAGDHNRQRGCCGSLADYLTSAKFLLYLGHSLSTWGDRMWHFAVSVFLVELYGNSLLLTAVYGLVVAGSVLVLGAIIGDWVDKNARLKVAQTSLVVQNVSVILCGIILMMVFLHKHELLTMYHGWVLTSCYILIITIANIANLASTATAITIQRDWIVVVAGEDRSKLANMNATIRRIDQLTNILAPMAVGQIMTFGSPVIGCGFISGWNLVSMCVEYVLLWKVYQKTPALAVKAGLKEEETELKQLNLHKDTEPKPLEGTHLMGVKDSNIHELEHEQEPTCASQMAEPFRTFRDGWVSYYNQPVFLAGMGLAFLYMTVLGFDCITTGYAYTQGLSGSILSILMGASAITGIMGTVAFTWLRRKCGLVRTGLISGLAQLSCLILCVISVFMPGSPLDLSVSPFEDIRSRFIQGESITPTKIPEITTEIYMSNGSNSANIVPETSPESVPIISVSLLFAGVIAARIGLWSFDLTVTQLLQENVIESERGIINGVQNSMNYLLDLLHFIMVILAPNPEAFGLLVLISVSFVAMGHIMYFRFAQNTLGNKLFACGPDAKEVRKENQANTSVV

B1: Compd ID 215 (peptide)
peptide: Isovaleryl-DTHFPCIK([γGlu-Palmitoyl])[αMeF]C-NH2
modifications: disulfide 6-10
SMILES: CCCCCCCCCCCCCCCC(=O)N[C@@H](CCC(=O)NCCCC[C@@H]1NC(=O)[C@H]([C@@H](C)CC)NC(=O)[C@@H](NC(=O)[C@@H]2CCCN2C(=O)[C@H](Cc2ccccc2)NC(=O)[C@H](Cc2c[nH]cn2)NC(=O)[C@@H](NC(=O)[C@H](CC(=O)O)NC(=O)CC(C)C)[C@@H](C)O)CSSC[C@@H](C(N)=O)NC(=O)[C@](C)(Cc2ccccc2)NC1=O)C(=O)O
B2: Compd ID 217 (peptide)
peptide: Isovaleryl-DTH[αMeF]PCIK([γGlu-Palmitoyl])[αMeF]C-NH2
modifications: disulfide 6-10
SMILES: CCCCCCCCCCCCCCCC(=O)N[C@@H](CCC(=O)NCCCC[C@@H]1NC(=O)[C@H]([C@@H](C)CC)NC(=O)[C@@H](NC(=O)[C@@H]2CCCN2C(=O)[C@](C)(Cc2ccccc2)NC(=O)[C@H](Cc2c[nH]cn2)NC(=O)[C@@H](NC(=O)[C@H](CC(=O)O)NC(=O)CC(C)C)[C@@H](C)O)CSSC[C@@H](C(N)=O)NC(=O)[C@](C)(Cc2ccccc2)NC1=O)C(=O)O
B3: Compd ID 207 (peptide)
peptide: Isovaleryl-DTHFPCIK([γGlu-Palmitoyl])FC-NH2
modifications: disulfide 6-10
SMILES: CCCCCCCCCCCCCCCC(=O)N[C@@H](CCC(=O)NCCCC[C@@H]1NC(=O)[C@H]([C@@H](C)CC)NC(=O)[C@@H](NC(=O)[C@@H]2CCCN2C(=O)[C@H](Cc2ccccc2)NC(=O)[C@H](Cc2c[nH]cn2)NC(=O)[C@@H](NC(=O)[C@H](CC(=O)O)NC(=O)CC(C)C)[C@@H](C)O)CSSC[C@@H](C(N)=O)NC(=O)[C@H](Cc2ccccc2)NC1=O)C(=O)O
B4: Compd ID 222 (peptide)
peptide: Isovaleryl-DTHFPCIK([PEG12-Palmitoyl])FC-NH2
modifications: disulfide 6-10
SMILES: CCCCCCCCCCCCCCCC(=O)NCCOCCOCCOCCOCCOCCOCCOCCOCCOCCOCCOCCOCCC(=O)NCCCC[C@@H]1NC(=O)[C@H]([C@@H](C)CC)NC(=O)[C@@H](NC(=O)[C@@H]2CCCN2C(=O)[C@H](Cc2ccccc2)NC(=O)[C@H](Cc2c[nH]cn2)NC(=O)[C@@H](NC(=O)[C@H](CC(=O)O)NC(=O)CC(C)C)[C@@H](C)O)CSSC[C@@H](C(N)=O)NC(=O)[C@H](Cc2ccccc2)NC1=O
B5: Compd ID 206 (peptide)
peptide: Isovaleryl-DTHFPCIK([γGlu-Palmitoyl])FEC-NH2
modifications: disulfide 6-11
SMILES: CCCCCCCCCCCCCCCC(=O)N[C@@H](CCC(=O)NCCCC[C@@H]1NC(=O)[C@H]([C@@H](C)CC)NC(=O)[C@@H](NC(=O)[C@@H]2CCCN2C(=O)[C@H](Cc2ccccc2)NC(=O)[C@H](Cc2c[nH]cn2)NC(=O)[C@@H](NC(=O)[C@H](CC(=O)O)NC(=O)CC(C)C)[C@@H](C)O)CSSC[C@@H](C(N)=O)NC(=O)[C@H](CCC(=O)O)NC(=O)[C@H](Cc2ccccc2)NC1=O)C(=O)O
B6: Compd ID 214 (peptide)
peptide: Isovaleryl-DTHFPCIK([γGlu-Palmitoyl])[β3hF]C-NH2
modifications: disulfide 6-10
SMILES: CCCCCCCCCCCCCCCC(=O)N[C@@H](CCC(=O)NCCCC[C@@H]1NC(=O)[C@H]([C@@H](C)CC)NC(=O)[C@@H](NC(=O)[C@@H]2CCCN2C(=O)[C@H](Cc2ccccc2)NC(=O)[C@H](Cc2c[nH]cn2)NC(=O)[C@@H](NC(=O)[C@H](CC(=O)O)NC(=O)CC(C)C)[C@@H](C)O)CSSC[C@@H](C(N)=O)NC(=O)C[C@H](Cc2ccccc2)NC1=O)C(=O)O
B7: Compd ID 212 (peptide)
peptide: Isovaleryl-DTHFPCI[dK]([γGlu-Palmitoyl])[NMeF]GC-NH2
modifications: disulfide 6-11
SMILES: CCCCCCCCCCCCCCCC(=O)N[C@@H](CCC(=O)NCCCC[C@H]1NC(=O)[C@H]([C@@H](C)CC)NC(=O)[C@@H](NC(=O)[C@@H]2CCCN2C(=O)[C@H](Cc2ccccc2)NC(=O)[C@H](Cc2c[nH]cn2)NC(=O)[C@@H](NC(=O)[C@H](CC(=O)O)NC(=O)CC(C)C)[C@@H](C)O)CSSC[C@@H](C(N)=O)NC(=O)CNC(=O)[C@H](Cc2ccccc2)N(C)C1=O)C(=O)O
B8: Compd ID 210 (peptide)
peptide: Isovaleryl-DTHFPCIK([γGlu-Palmitoyl])FCK-NH2
modifications: disulfide 6-10
SMILES: CCCCCCCCCCCCCCCC(=O)N[C@@H](CCC(=O)NCCCC[C@@H]1NC(=O)[C@H]([C@@H](C)CC)NC(=O)[C@@H](NC(=O)[C@@H]2CCCN2C(=O)[C@H](Cc2ccccc2)NC(=O)[C@H](Cc2c[nH]cn2)NC(=O)[C@@H](NC(=O)[C@H](CC(=O)O)NC(=O)CC(C)C)[C@@H](C)O)CSSC[C@@H](C(=O)N[C@@H](CCCCN)C(N)=O)NC(=O)[C@H](Cc2ccccc2)NC1=O)C(=O)O
B9: Compd ID 223 (peptide)
peptide: Isovaleryl-DTHFPCIK([γGlu-Palmitoyl])FC-NH2
modifications: disulfide 6-10
SMILES: CCCCCCCCCCCCCCCC(=O)N[C@@H](CCC(=O)NCCCC[C@@H]1NC(=O)[C@H]([C@@H](C)CC)NC(=O)[C@@H](NC(=O)[C@@H]2CCCN2C(=O)[C@H](Cc2ccccc2)NC(=O)[C@H](Cc2c[nH]cn2)NC(=O)[C@@H](NC(=O)[C@H](CC(=O)O)NC(=O)CC(C)C)[C@@H](C)O)CSSC[C@@H](C(N)=O)NC(=O)[C@H](Cc2ccccc2)NC1=O)C(=O)O
B10: Compd ID 216 (peptide)
peptide: Isovaleryl-DTH[Dip]PCIK([γGlu-Palmitoyl])[αMeF]C-NH2
modifications: disulfide 6-10
SMILES: CCCCCCCCCCCCCCCC(=O)N[C@@H](CCC(=O)NCCCC[C@@H]1NC(=O)[C@H]([C@@H](C)CC)NC(=O)[C@@H](NC(=O)[C@@H]2CCCN2C(=O)[C@@H](NC(=O)[C@H](Cc2c[nH]cn2)NC(=O)[C@@H](NC(=O)[C@H](CC(=O)O)NC(=O)CC(C)C)[C@@H](C)O)C(c2ccccc2)c2ccccc2)CSSC[C@@H](C(N)=O)NC(=O)[C@](C)(Cc2ccccc2)NC1=O)C(=O)O
B11: Compd ID 219 (peptide)
peptide: Isovaleryl-DTH[β3hF]PCIK([γGlu-Palmitoyl])[αMeF]C-NH2
modifications: disulfide 6-10
SMILES: CCCCCCCCCCCCCCCC(=O)N[C@@H](CCC(=O)NCCCC[C@@H]1NC(=O)[C@H]([C@@H](C)CC)NC(=O)[C@@H](NC(=O)[C@@H]2CCCN2C(=O)C[C@H](Cc2ccccc2)NC(=O)[C@H](Cc2c[nH]cn2)NC(=O)[C@@H](NC(=O)[C@H](CC(=O)O)NC(=O)CC(C)C)[C@@H](C)O)CSSC[C@@H](C(N)=O)NC(=O)[C@](C)(Cc2ccccc2)NC1=O)C(=O)O
B12: Compd ID 224 (peptide)
peptide: Isovaleryl-DTHFPCI[dK]([PEG12-Palmitoyl])FKC-NH2
modifications: disulfide 6-11
SMILES: CCCCCCCCCCCCCCCC(=O)NCCOCCOCCOCCOCCOCCOCCOCCOCCOCCOCCOCCOCCC(=O)NCCCC[C@H]1NC(=O)[C@H]([C@@H](C)CC)NC(=O)[C@@H](NC(=O)[C@@H]2CCCN2C(=O)[C@H](Cc2ccccc2)NC(=O)[C@H](Cc2c[nH]cn2)NC(=O)[C@@H](NC(=O)[C@H](CC(=O)O)NC(=O)CC(C)C)[C@@H](C)O)CSSC[C@@H](C(N)=O)NC(=O)[C@H](CCCCN)NC(=O)[C@H](Cc2ccccc2)NC1=O
B13: Compd ID 220 (peptide)
peptide: Isovaleryl-DTHWPCIK([γGlu-Palmitoyl])[αMeF]C-NH2
modifications: disulfide 6-10
SMILES: CCCCCCCCCCCCCCCC(=O)N[C@@H](CCC(=O)NCCCC[C@@H]1NC(=O)[C@H]([C@@H](C)CC)NC(=O)[C@@H](NC(=O)[C@@H]2CCCN2C(=O)[C@H](Cc2c[nH]c3ccccc23)NC(=O)[C@H](Cc2c[nH]cn2)NC(=O)[C@@H](NC(=O)[C@H](CC(=O)O)NC(=O)CC(C)C)[C@@H](C)O)CSSC[C@@H](C(N)=O)NC(=O)[C@](C)(Cc2ccccc2)NC1=O)C(=O)O
B14: Compd ID 218 (peptide)
peptide: Isovaleryl-DTH[NMeF]PCIK([γGlu-Palmitoyl])[αMeF]C-NH2
modifications: disulfide 6-10
SMILES: CCCCCCCCCCCCCCCC(=O)N[C@@H](CCC(=O)NCCCC[C@@H]1NC(=O)[C@H]([C@@H](C)CC)NC(=O)[C@@H](NC(=O)[C@@H]2CCCN2C(=O)[C@H](Cc2ccccc2)N(C)C(=O)[C@H](Cc2c[nH]cn2)NC(=O)[C@@H](NC(=O)[C@H](CC(=O)O)NC(=O)CC(C)C)[C@@H](C)O)CSSC[C@@H](C(N)=O)NC(=O)[C@](C)(Cc2ccccc2)NC1=O)C(=O)O

Each binder was assayed against T1, human ferroportin (SLC40A1) fused in … (assay: cell-based or functional assay).

Binder | FPN IC50 [nM]
B1 | 96
B2 | > 3000
B3 | 64
B4 | 4
B5 | 267
B6 | 36
B7 | 403
B8 | 60
B9 | 47
B10 | 16
B11 | 182
B12 | 33
B13 | 871
B14 | > 3000
Isovaleryl-DTHF[NPC]CIK([γGlu-Palmitoyl])[αMeF]C-NH2 (disulfide 6-10) [Compd ID 221] | 79
